Experimental findings from patent publication US20070224194A1, “Methods for Inhibiting Angiogenesis and/or Lymphangiogenesis” (LUDWIG INSTITUTE FOR CANCER RESEARCH, priority 2004, published 2007) are described below.

The target of data set [1] is VEGFR-2 (as used in the biosensor analysis) (UniProt P35968). Nature of the data set: SPR. Conditions: ligand.
The target of data set [2] is VEGFR-3 (as used in the biosensor analysis) (UniProt P35916). Briefly: SPR. The following applies: ligand.
Data set [3] addresses VEGFR-2 (as used in the biosensor analysis) (UniProt P35968). Nature of the data set: SPR biosensor, 1:1 Langmuir model; reference VEGF-DSSTS.IISS on the same receptor.
Data set [4] addresses VEGFR-3 (as used in the biosensor analysis) (UniProt P35916). The description is as above.
Data set [5] deals with T1, VEGFR-2 (as used in the biosensor analysis) (UniProt P35968 20-764).
T1 chain: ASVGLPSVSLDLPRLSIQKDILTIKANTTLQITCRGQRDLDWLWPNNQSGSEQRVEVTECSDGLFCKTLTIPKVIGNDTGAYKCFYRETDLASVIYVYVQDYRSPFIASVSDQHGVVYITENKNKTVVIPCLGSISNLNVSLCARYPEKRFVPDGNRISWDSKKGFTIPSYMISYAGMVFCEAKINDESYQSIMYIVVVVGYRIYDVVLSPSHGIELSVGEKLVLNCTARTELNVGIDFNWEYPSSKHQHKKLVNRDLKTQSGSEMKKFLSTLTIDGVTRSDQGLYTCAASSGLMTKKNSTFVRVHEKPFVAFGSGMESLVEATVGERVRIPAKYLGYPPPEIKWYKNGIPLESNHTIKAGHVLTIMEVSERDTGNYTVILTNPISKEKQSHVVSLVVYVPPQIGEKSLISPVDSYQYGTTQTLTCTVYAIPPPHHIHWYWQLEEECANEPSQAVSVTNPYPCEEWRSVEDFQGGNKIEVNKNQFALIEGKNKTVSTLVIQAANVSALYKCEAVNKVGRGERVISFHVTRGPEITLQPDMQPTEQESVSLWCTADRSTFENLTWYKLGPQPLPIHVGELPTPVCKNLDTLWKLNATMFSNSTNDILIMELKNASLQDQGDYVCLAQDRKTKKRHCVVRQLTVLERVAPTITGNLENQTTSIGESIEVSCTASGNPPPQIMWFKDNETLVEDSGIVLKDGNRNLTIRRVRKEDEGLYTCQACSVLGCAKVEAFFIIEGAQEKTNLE
Briefly: SPR. For orientation: Surface plasmon resonance follows binding to a sensor surface in real time, without labels.

Data set [6] deals with T2, VEGFR-3 (as used in the biosensor analysis) (UniProt P35916 25-775).
T2 chain: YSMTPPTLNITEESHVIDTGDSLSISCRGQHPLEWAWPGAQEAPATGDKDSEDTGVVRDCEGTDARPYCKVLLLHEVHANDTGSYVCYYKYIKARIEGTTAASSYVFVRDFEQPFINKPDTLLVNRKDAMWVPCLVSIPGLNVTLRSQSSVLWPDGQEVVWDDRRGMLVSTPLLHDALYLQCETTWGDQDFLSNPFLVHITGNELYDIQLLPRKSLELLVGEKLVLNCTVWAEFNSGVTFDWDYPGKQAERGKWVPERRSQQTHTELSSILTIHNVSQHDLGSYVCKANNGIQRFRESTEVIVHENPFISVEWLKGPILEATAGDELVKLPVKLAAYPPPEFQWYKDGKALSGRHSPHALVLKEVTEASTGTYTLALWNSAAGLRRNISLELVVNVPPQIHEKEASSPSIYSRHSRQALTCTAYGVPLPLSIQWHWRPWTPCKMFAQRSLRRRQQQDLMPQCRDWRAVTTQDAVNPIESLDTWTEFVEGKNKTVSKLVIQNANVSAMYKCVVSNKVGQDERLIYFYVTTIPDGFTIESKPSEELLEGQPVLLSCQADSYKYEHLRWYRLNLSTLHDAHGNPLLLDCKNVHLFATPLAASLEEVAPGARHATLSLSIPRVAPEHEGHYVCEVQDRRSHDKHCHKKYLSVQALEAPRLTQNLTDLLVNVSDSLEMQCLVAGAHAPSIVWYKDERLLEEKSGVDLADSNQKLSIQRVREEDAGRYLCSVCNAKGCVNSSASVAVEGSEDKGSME
Nature of the data set: SPR.

The target of data set [7] is VEGFR-2 (as used in the biosensor analysis) (UniProt P35968). Briefly: SPR biosensor, 1:1 Langmuir model; reference VEGF-DSSTS.IISS on the same receptor; the preparation held traces of processed forms.
Another data set deals with VEGFR-2 (Homo sapiens, UniProt P35968). Briefly: Biosensor analysis (surface plasmon resonance) of VEGF-D ligands on VEGFR-2. The format is binding. The following applies: 1:1 Langmurian model. As to the method:
To determine the relative affinities of the ligands VEGF-DSSTS.IISS, VEGF-D-FULL-N-FLAG and mature VEGF-D (designated VEGF-DΔNΔC) for VEGFR-2 and VEGFR-3, the relative binding kinetics for these interactions was analyzed by biosensor analysis using surface plasmon resonance detection (Nice et al., Bioessays, 21:339-352, 1999). The preparations of VEGF-DSSTS.IISS and VEGF-DΔNΔC used for this analysis each consisted of one VEGF-D species devoid of other forms of VEGF-D but the preparation of VEGF-D-FULL-N-FLAG did contain traces of partially processed as well as full-length material, reflecting the capacity of wild-type full-length VEGF-D to be proteolytically processed in the 293EBNA cell cultures) from which these proteins were purified (see FIG. 10B). The binding constants for the interactions were obtained by analysis of the initial dissociation phase to obtain the kd, which was then used to constrain a global analysis of the association region of the curves, using regions of the curves where a 1:1 Langmurian model appeared to be operative.

A further data set has as its system furin. Nature of the data set: Knockdown of furin protein by shRNA (co-transfection of shRNA and furin expression constructs). The data set is classed as cell-based, human. The source says: Short hairpin RNA (shRNA) primers targeting furin RNA were designed using an in-house primer design algorithm. These primer pairs form the shRNA structure that then results in functional siRNA targeting sequences 457-476 and 558-575 of open reading frame of human furin sequence (Genbank Accession No. NM_002569.2, SEQ ID NO: 21). The underlined sections are structural motifs for the formation of the small hairpin RNA structure and for the ligation of the annealed primers to the parental vector. In bold the 5′-3′ upper strand of the target sequence which is naturally a part of the primer sequence.
The above shRNA primers were generated to target the sequences 5′-GACGATGGCATCGAGAAGAA-3′ (SEQ ID NO: 19) and 5′-ACA CAC AGA TGA ATG ACA A-3′ (SEQ ID NO: 20). Primers were annealed by heating a mix of 60 pM of both primers in 50 μl annealing buffer (0.1 M potassium acetate, 2 mM magnesium acetate, 30 mM HEPES pH 7.4) at 94° C. for 4 min then 70° C. for 10 min and allowed to cool to room temperature. Annealing was verified in 3% low melting point agarose gel. The shRNA construct was then ligated into pMSCVpac mU6 which is a derivative of pMSCV (Clontech). The shRNAs were validated by assessing reduction of furin protein levels resulting from co-transfections of shRNA and furin expression constructs in 293EBNA cells or other cell lines stably overexpressing furin.

The target of another data set is T3, VEGFR-1-Ig (human, UniProt P17948 27-758).
T3 construct: extracellular domain; R&D Systems is named as its source; used as a negative control; also called soluble fusion protein of the extracellular domain of human VEGFR-1 and the Fc portion of human IgG; not shown: Fc portion of human IgG
T3 sequence (P17948 27-758): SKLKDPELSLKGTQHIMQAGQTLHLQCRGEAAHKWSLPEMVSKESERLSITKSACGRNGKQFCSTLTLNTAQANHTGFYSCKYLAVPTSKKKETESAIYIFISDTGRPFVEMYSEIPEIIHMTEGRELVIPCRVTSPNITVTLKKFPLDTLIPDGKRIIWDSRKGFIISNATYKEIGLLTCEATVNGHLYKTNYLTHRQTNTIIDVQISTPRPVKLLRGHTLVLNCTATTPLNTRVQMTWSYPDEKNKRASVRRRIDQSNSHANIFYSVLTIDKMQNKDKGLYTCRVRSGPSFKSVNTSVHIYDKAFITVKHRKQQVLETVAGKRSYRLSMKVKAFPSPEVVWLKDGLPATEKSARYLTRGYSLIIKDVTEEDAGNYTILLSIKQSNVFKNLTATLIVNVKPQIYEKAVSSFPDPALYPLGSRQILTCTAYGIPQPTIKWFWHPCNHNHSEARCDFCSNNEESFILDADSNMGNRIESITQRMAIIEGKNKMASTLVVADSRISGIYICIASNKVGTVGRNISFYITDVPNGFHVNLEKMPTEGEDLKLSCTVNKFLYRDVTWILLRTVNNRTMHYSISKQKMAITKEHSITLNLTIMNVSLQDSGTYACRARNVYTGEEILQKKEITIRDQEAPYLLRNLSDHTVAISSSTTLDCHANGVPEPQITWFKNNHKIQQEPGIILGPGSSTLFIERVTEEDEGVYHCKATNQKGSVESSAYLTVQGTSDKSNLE
Nature of the data set: pull-down with receptor-Ig on protein-A sepharose from LoVo conditioned medium, Western blot. On the procedure: Binding to receptor extracellular domains was examined using soluble fusion proteins consisting of the extracellular domains of human VEGFR-1, VEGFR-2 or VEGFR-3 joined to the Fe portions of human IgG (referred to as VEGFR-1-Ig (R&D Systems), VEGFR-2-Ig and VEGFR-3-Ig) (Achen et al, Proc. Natl. Acad. Sci. USA 95 548-553, 1998). Protein-A sepharose beads were incubated overnight with the conditioned media of 293EBNA cells expressing VEGFR-1-Ig, VEGFR-2-Ig or VEGFR-3-Ig to precipitate the soluble receptor constructs. The soluble receptors bound to protein-A sepharose beads were recovered by centrifugation (5 minutes, 250×g, 4° C.) and washed twice with binding buffer (0.5% (w/v) BSA, 0.02% (v/v) Tween 20, 10 μg/ml heparin in phosphate buffered saline). The soluble receptors bound to protein-A sepharose beads were then incubated with the conditioned media of LoVo cells, that had been co-transfected with pVDAPEX FULL-N-FLAG and pcDNA3:furin, for three hours at room temperature, and washed twice with binding buffer. Proteins bound to the VEGFR-2-Ig and VEGFR-3-Ig constructs were analysed by reducing SDS-PAGE and Western blotting with a biotinylated antibody against the VHD of human VEGF-D (R&D Systems), followed by Streptavidin-horse radish peroxidase conjugate (Zymed).
In general terms: Immunoblotting shows a protein as a band on a membrane.

Chain of VEGFR-2 (P35968 20-1356): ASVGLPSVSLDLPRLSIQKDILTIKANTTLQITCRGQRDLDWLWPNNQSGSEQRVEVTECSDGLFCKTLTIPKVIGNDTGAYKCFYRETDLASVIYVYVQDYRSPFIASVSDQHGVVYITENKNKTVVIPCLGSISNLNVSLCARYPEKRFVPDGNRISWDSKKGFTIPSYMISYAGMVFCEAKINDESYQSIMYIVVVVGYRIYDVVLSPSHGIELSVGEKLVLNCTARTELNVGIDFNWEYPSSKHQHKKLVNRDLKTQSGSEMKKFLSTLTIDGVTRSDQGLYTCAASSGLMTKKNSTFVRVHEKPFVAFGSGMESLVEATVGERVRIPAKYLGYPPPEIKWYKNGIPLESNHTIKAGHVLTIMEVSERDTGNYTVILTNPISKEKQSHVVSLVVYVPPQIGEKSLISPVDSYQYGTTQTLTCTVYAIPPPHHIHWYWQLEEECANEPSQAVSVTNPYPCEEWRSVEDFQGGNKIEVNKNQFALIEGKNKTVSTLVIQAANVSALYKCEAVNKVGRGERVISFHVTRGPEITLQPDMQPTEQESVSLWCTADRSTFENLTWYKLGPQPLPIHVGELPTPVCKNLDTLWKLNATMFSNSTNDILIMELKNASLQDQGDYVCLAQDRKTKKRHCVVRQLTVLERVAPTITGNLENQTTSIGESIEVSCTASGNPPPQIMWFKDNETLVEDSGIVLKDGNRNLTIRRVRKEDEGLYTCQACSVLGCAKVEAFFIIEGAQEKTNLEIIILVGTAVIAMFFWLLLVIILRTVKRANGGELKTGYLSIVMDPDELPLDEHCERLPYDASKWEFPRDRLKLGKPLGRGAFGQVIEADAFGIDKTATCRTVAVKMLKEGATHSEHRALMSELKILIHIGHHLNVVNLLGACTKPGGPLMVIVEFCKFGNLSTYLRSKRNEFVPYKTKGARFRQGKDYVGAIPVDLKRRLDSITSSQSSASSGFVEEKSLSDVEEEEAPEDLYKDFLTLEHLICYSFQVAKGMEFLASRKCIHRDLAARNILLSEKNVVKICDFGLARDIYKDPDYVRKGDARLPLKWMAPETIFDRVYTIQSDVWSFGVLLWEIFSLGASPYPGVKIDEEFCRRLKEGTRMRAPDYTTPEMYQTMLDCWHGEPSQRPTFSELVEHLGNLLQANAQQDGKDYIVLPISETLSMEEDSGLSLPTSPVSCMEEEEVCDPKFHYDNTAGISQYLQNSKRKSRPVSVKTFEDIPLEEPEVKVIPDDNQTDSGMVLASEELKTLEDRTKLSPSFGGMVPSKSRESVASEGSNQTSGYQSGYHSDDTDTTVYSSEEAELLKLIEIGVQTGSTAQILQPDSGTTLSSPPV

What is called Kd is a measure of binding affinity in units of concentration. Higher therefore signals lower affinity. In the case of “mature VEGF-D (designated VEGF-DΔNΔC) (from UniProt O43915 93-201)”, the results for the Kd in data set [1] and in data set [2] were 8.7 nM and 44 nM, respectively.

For the molecule “mature VEGF-D (designated VEGF-DΔNΔC) (from UniProt O43915 93-201) (ligand)”, the fold greater apparent affinity than VEGF-DSSTS.IISS in [3] came out at 17000 fold. This molecule also yielded a fold greater affinity than VEGF-DSSTS.IISS in [4] of 18 fold.

B1: VEGF-D-FULL-N-FLAG (full-length VEGF-D tagged with FLAG at the N-terminus) (ligand)
chain: NEHGPVKRSSQSTLERSEQQIRAASSLEELLRITHSEDWKLWRCRLRLKSFTSMDSRSASHRSTRFAATFYDIETLKVIDEEWQRTQCSPRETCVEVASELGKSTNTFFKPPCVNVFRCGGCCNEESLICMNTSTSYISKQLFEISVPLTSVPELVPVKVANHTGCKCLPTAPRHPYSIIRRSIQIPEEDRCSHSKKLCPIDMLWDSNKCKCVLQEENPLAGTEDHSHLQEPALCGPHMMFDEDRCECVCKTPCPKDLIQHPKNCSCFECKESLETCCQKHKLFHPDTCSCEDRCPFHTRPCASGKTACAKHCRFPKEKRAAQGPHSRKNP
As to B1, the Kd amounted to 1600 nM in data set [5] and 490 nM in [6]. In data set [7], this molecule yielded a fold greater affinity than VEGF-DSSTS.IISS of 94 fold.

B2: VEGF-D-FULL-N-FLAG: full-length VEGF-D tagged with FLAG at the N-terminus; preparation contained traces of partially processed material (protein)
chain: NEHGPVKRSSQSTLERSEQQIRAASSLEELLRITHSEDWKLWRCRLRLKSFTSMDSRSASHRSTRFAATFYDIETLKVIDEEWQRTQCSPRETCVEVASELGKSTNTFFKPPCVNVFRCGGCCNEESLICMNTSTSYISKQLFEISVPLTSVPELVPVKVANHTGCKCLPTAPRHPYSIIRRSIQIPEEDRCSHSKKLCPIDMLWDSNKCKCVLQEENPLAGTEDHSHLQEPALCGPHMMFDEDRCECVCKTPCPKDLIQHPKNCSCFECKESLETCCQKHKLFHPDTCSCEDRCPFHTRPCASGKTACAKHCRFPKEKRAAQGPHSRKNP
modifications: left off: small tags and cut ends
notes: full-length VEGF-D tagged with FLAG at the N-terminus; preparation contained traces of partially processed material
Take B2: the “apparent affinity for VEGFR-2 relative to unprocessed mutant VEGF-DSSTS.IISS” value in the data set with VEGFR-2 is roughly 94 fold.

B3: VEGF-DSSTS.IISS (ligand)
chain: NEHGPVKRSSQSTLERSEQQIRAASSLEELLRITHSEDWKLWRCRLRLKSFTSMDSRSASHSSTSFAATFYDIETLKVIDEEWQRTQCSPRETCVEVASELGKSTNTFFKPPCVNVFRCGGCCNEESLICMNTSTSYISKQLFEISVPLTSVPELVPVKVANHTGCKCLPTAPRHPYSIISSSIQIPEEDRCSHSKKLCPIDMLWDSNKCKCVLQEENPLAGTEDHSHLQEPALCGPHMMFDEDRCECVCKTPCPKDLIQHPKNCSCFECKESLETCCQKHKLFHPDTCSCEDRCPFHTRPCASGKTACAKHCRFPKEKRAAQGPHSRKNP
Regarding B3, the Kd in data set [5] turned out to be 150000 nM; in data set [6], 790 nM.

B4: Second shRNA pair: shRNA primer pair (SEQ ID NO:17 and 18) targeting bases 558-575 of human furin (nucleic acid)
chain 1: CACACAGATGAATGACAATTCAAGAGATTGTCATTCATCTGTGTGTTTTTT
chain 2: AATTAAAAAACACACAGATGAATGACAATCTCTTGAATTGTCATTCATCTGTGTG
As for B4, in the data set on furin, the “knockdown of protein expression in vitro” value was 70-80%.

B5: mature form of VEGF-D generated by furin (ligand, human, UniProt O43915 89-205, looked up)
chain: FAATFYDIETLKVIDEEWQRTQCSPRETCVEVASELGKSTNTFFKPPCVNVFRCGGCCNEESLICMNTSTSYISKQLFEISVPLTSVPELVPVKVANHTGCKCLPTAPRHPYSIIRR
notes: range 89-205; Present in conditioned medium of LoVo cells co-transfected with pVDAPEX FULL-N-FLAG and pcDNA3:furin; not purified; also called ˜21 kDa VEGF-D species; mature VEGF-D
In the case of B5, the binding result in the data set with VEGFR-1-Ig was “no binding”.

B6: First primer pair: shRNA primer pair (SEQ ID NO:15 and 16) targeting bases 457-476 of human furin (nucleic acid)
chain 1: GACGATGGCATCGAGAAGAATTCAAGAGATTCTTCTCGATGCCATCGTCTTTTTT
chain 2: AATTAAAAAAGACGATGGCATCGAGAAGAATCTCTTGAATTCTTCTCGATGCCATCGTC
With B6, in the data set on furin, the “knockdown of furin protein expression in vitro” value is given as “almost complete knockdown”.
